The target of this test is T1, trx-ALKAL2-AD^RC (K94E/K96E/K99E/H100E) (human, UniProt Q6UX46 77-152, K94E | K96E | K99E | H100E).
T1 sequence (looked up): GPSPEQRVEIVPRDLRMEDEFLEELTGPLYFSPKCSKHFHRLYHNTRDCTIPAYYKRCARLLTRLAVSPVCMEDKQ
As to the kind of experiment: BLI.

B1: site-specifically biotinylated ALK-ECR^ABR (from Fc-ALKavi) (domain or fragment, human)
chain: QTPIFDPTVHWLFTTCGASGPHGPTQAQCNNAYQNSNLSVEVGSEGPLKGIQIWKVPATDTYSISGYGAAGGKGGKNTMMRSHGVSVLGIFNLEKDDMLYILVGQQGEDACPSTNQLIQKVCIGENNVIEEEIRVNRSVHEWAGGGGGGGGATYVFKMKDGVPVPLIIAAGGGGRAYGAKTDTFHPERLENNSSVLGLNGNSGAAGGGGGWNDNTSLLWAGKSLQEGATGGHSCPQAMKKWGWETRGGFGGGGGGCSSGGGGGGYIGGNAASNNDPEMDGEDGVSFISPLGILYTPALKVMEGHGEVNIKHYLNCSHCEVDECHMDPESHKVICFCDHGTVLAEDGVSCIVSP
modifications: biotin on the C-terminal biotin acceptor peptide (co-expressed BirA)
In the case of B1, the binding result is given as “binds”.

Values taken from publication PMC8639797 (Nature, 2021).
